Test results from the supplement of paper PMC10567573.

B1: SMTNL2 (parent)
chain: QKNFELAFTMAENLANCERLIEVE

Variants of: B1
Assay: protein stability index of a GFP-peptide fusion (GPS, HEK-293T) (PSI 1-6); higher = more stable
Conditions: c terminus: a fixed tail appended
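Further: lentivirally expressed fusions sorted by FACS into six bins by GFP to DsRed ratio, PSI derived from sequencing read proportions per bin multiplied by bin number.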

Protein stability index, by site and new letter:
A7: M 1.73; Q 2.58; V 1.77; T 2.2; E 1.68; L 1.22; Y 2.08; C 2.56; F 1.88; D 2.85; S 1.78; K 2.98; P 3.32; W 2.26; H 2.16
F4: K 4.05; R 3.06; Y 1.98; S 3.4; D 3.72; I 2.53; P 4.09; T 3.51; N 3.27; A 2.45; H 1.98; V 2.87; E 2.94; M 2.31; G 3.73
T9: C 2.03; V 2.5; E 2.9; G 2.02; S 1.98; K 1.39; P 3.3; N 2.37; A 1.37; Y 2.57; I 3.12; Q 1.89; R 1.13; D 2.74; W 2.96; H 1.96
L20: V 1.27; C 2.1; I 2.31; D 4.42; W 1.38; H 2.69; M 1.35; A 2.55; G 2.97; Y 2.08; R 2.12; P 3.58; N 4.06; Q 1.61; T 2.25; S 3.52; E 2.92; K 2.46; F 2.15
I21: C 3.27; V 2.96; K 3.46; G 3.85; R 2.44; A 3.25; W 3.67; Y 2.99; P 4.14; H 3.17; D 4.39; S 4.54; E 4.62; F 2.29; Q 3.72; M 2.61; N 3.95; T 4.29
A15: V 2.83; C 2.46; H 2.1; Y 1.84; E 3.11; I 1.87; M 1.92; N 2.04; D 3.49; L 1.52; G 2.67; P 2.93; F 1.45; T 1.32; Q 1.42; S 1.46; R 1.38
R19: T 2.61; H 1.97; Q 1.9; F 2.86; W 3.89; M 2.86; G 2.92; K 1.52; S 2.55; C 1.83; P 3.57; V 1.27; E 3.33; N 3.03; A 1.84; I 2.57; L 1.55
L14: D 4.44; V 3.19; R 3.92; Y 3.37; M 2.02; K 3.8; E 4.23; I 2.89; P 3.89; N 2.72; W 2.26; F 3.11; Q 3.98; S 3.69; T 3.79; H 3.53; C 3.14; A 3.7
E24: A 2.84
C17: A 2.16; P 4.29; N 4.09; S 2.28; T 1.39; K 3.5; Y 2.78; D 3.98; I 2.14; G 2.98; H 3.37; M 2.83; Q 2.79; V 2.02; F 2.14; R 3.51
E12: Q 1.87; V 3.63; I 1.74; H 2.01; T 1.86; S 4; L 2.69; P 2.26; R 1.33; W 3.4; N 2.6; G 1.98; D 1.8; K 2.05
N13: Y 2.99; V 1.33; E 2.21; K 1.95; F 2.82; S 2.33; R 1.67; L 1.98; W 2; H 1.41; T 1.8; I 2.98; Q 1.68; C 2.69; G 2.19; P 3.63
E5: C 2.87; Q 1.25; H 1.96; A 1.62; N 2.96; G 2.52; K 2.24; D 1.59; T 1.94; S 1.39; L 1.72; R 3.01
K2: R 2.34; P 2.24; S 1.76; T 1.03; I 2.71; V 1.67; M 1.7; L 1.78; H 1.13
E22: C 2.79; K 2.71; T 3.65; P 2.82; H 1.88; A 3.4; D 1.72; G 1.55; N 1.68; M 2.94; I 2.9
V23: K 1.66; L 2.34; S 2.25; A 2.18; N 1.69; P 2.98; F 2.36; R 2.21; D 1.77; T 3.11; I 1.78; M 4.25; E 2.93; H 2.73; W 1.63; Q 1.3; C 2.21; G 2.04; Y 3.99
N16: K 3.84; V 2.61; E 2.89; L 2.73; R 1.44; F 1.36; W 3.51; Y 2.33; P 2.8; C 1.85; M 1.34; I 2.83; Q 2.33
L6: E 2.46; S 2.19; R 3.29; Q 2.54; V 2.04; K 2.65; N 2.91; G 3.23; I 2.12; P 3.62; F 1.91; H 2.55; A 3.32; T 2.01
E18: H 2.64; V 1; Y 3.75; D 2.98; S 2.65; N 2.22; C 2.68; G 1.84; R 1.85; P 2.6; L 1.59; M 2.73; Q 1.97; T 2.18; I 4.4; K 2.04; A 2.09
N3: R 1.76; V 3.1; M 3.62; T 2.09; I 3.48; S 1.78; W 3.6; Y 1.96; D 3.28; Q 1.81; E 1.61
F8: P 4.98; N 2.06; D 4.41; S 1.45; H 2.33; Y 1.35; C 1.07; W 1.48; E 3.82; T 2.6; V 2.12; Q 3.61; G 4.29
M10: W 1.41; T 3.66; A 3.87; V 3.29; S 3.88; C 3.37; D 4.64; E 4.17; R 3.77; P 3.66; Q 4.38; N 4.24; G 4.33; K 3.9; L 1.66; H 3.91; Y 3.45; F 3.08; I 1.57
A11: R 3.03; C 3.46; W 2.75; N 2.82; H 3.39; K 2.29; M 1.49; Q 1.62; E 3.78; G 2.04; S 2.79; P 3.85; I 4.18; D 3.85
